Each block holds one binder with its values, some of them ahead of it.
How the values were obtained:
Assay in all cases: two-hybrid library CCmax;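 also: natural log of median RNA to DNA barcode read ratio; higher means stronger binding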
4H1874-AA = target: T1, 4H1874-AA
T1 chain: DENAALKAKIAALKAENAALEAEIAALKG

4H2198-AA = target: T2, 4H2198-AA; conditions: mean of both orientations
T2 chain: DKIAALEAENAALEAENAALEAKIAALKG

4H2553-AA = target: T3, 4H2553-AA; conditions: mean of both orientations
T3 chain: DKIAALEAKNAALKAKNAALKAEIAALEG

4H2611-AA = target: T4, 4H2611-AA; conditions: mean of both orientations
T4 chain: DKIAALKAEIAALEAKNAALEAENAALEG

4H2620-AA = target: T5, 4H2620-AA; conditions: mean of both orientations
T5 chain: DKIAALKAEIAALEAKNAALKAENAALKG

4H2648-AA = target: T6, 4H2648-AA; conditions: mean of both orientations
T6 chain: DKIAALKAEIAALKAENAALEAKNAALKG

4H2907-AA = target: T7, 4H2907-AA; conditions: mean of both orientations
T7 chain: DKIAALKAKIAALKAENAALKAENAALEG

4H3056-AA = target: T8, 4H3056-AA; conditions: mean of both orientations
T8 chain: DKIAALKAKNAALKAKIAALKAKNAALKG

4H3133-AA = target: T9, 4H3133-AA; conditions: mean of both orientations
T9 chain: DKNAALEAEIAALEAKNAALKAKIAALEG

4H3162-AA = target: T10, 4H3162-AA; conditions: mean of both orientations
T10 chain: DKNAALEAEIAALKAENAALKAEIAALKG

4H32-AA = target: T11, 4H32-AA; conditions: mean of both orientations
T11 chain: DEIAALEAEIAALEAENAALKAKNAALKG

4H3378-AA = target: T12, 4H3378-AA; conditions: mean of both orientations
T12 chain: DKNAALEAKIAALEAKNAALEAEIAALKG

4H340-AA = target: T13, 4H340-AA; conditions: mean of both orientations
T13 chain: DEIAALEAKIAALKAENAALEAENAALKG

4H3413-AA = target: T14, 4H3413-AA; conditions: mean of both orientations
T14 chain: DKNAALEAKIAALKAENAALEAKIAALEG

4H3588-AA = target: T15, 4H3588-AA; conditions: mean of both orientations
T15 chain: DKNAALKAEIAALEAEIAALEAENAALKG

4H3606-AA = target: T16, 4H3606-AA; conditions: mean of both orientations
T16 chain: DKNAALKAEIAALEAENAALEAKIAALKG

4H3631-AA = target: T17, 4H3631-AA; conditions: mean of both orientations
T17 chain: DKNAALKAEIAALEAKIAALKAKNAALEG

4H3697-AA = target: T18, 4H3697-AA; conditions: mean of both orientations
T18 chain: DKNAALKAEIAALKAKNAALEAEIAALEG

4H3718-AA = target: T19, 4H3718-AA; conditions: mean of both orientations
T19 chain: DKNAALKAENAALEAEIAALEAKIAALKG

4H384-AA = target: T20, 4H384-AA; conditions: mean of both orientations
T20 chain: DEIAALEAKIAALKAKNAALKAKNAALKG

4H3865-AA = target: T21, 4H3865-AA; conditions: mean of both orientations
T21 chain: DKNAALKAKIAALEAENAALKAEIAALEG

4H697-AA = target: T22, 4H697-AA; conditions: mean of both orientations
T22 chain: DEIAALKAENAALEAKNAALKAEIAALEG

4H982-AA = target: T23, 4H982-AA; conditions: mean of both orientations
T23 chain: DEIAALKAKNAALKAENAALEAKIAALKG

P2-AA-1HGe-A = target: T24, P2-AA-1HGe-A; conditions: mean of both orientations
T24 chain: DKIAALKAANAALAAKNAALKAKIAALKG

P2-AA-1HGe-D = target: T25, P2-AA-1HGe-D; conditions: mean of both orientations
T25 chain: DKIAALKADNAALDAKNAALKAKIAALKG

P2-AA-1HGe-M = target: T26, P2-AA-1HGe-M; conditions: mean of both orientations
T26 chain: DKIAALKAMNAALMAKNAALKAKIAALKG

P2-AA-1HGe-Q = target: T27, P2-AA-1HGe-Q; conditions: mean of both orientations
T27 chain: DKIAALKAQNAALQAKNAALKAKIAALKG

P2-AA-1HGe-T = target: T28, P2-AA-1HGe-T; conditions: mean of both orientations
T28 chain: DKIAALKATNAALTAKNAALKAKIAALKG

P2-AA = target: T29, P2-AA; conditions: mean of both orientations
T29 chain: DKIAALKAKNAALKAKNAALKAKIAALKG

4H2614-AA = target: T30, 4H2614-AA
T30 chain: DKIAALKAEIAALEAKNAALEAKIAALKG

4H2726-AA = target: T31, 4H2726-AA; conditions: mean of both orientations
T31 chain: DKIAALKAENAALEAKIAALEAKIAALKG

4H2935-AA = target: T32, 4H2935-AA; conditions: mean of both orientations
T32 chain: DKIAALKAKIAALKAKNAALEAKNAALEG

4H327-AA = target: T33, 4H327-AA; conditions: mean of both orientations
T33 chain: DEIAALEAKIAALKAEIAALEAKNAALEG

4H3605-AA = target: T34, 4H3605-AA; conditions: mean of both orientations
T34 chain: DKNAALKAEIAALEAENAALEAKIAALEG

4H3625-AA = target: T35, 4H3625-AA; conditions: mean of both orientations
T35 chain: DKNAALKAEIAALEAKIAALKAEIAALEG

4H3664-AA = target: T36, 4H3664-AA; conditions: mean of both orientations
T36 chain: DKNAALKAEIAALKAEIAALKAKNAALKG

4H369-AA = target: T37, 4H369-AA; conditions: mean of both orientations
T37 chain: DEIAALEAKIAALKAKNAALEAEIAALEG

4H3922-AA = target: T38, 4H3922-AA; conditions: mean of both orientations
T38 chain: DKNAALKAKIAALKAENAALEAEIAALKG

4H4033-AA = target: T39, 4H4033-AA; conditions: mean of both orientations
T39 chain: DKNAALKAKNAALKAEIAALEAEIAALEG

4H481-AA = target: T40, 4H481-AA; conditions: mean of both orientations
T40 chain: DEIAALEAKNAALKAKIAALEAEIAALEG

4H55-AA = target: T41, 4H55-AA; conditions: mean of both orientations
T41 chain: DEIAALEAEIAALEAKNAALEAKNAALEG

4H662-AA = target: T42, 4H662-AA; conditions: mean of both orientations
T42 chain: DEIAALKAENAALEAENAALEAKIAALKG

interaction score (4H1874-AA): 1.18 | interaction score (4H2198-AA): -1.15 | interaction score (4H2553-AA): -1.21 | interaction score (4H2611-AA): -1.33 | interaction score (4H2620-AA): 1.59 | interaction score (4H2648-AA): -1.44 | interaction score (4H2907-AA): -1.61 | interaction score (4H3056-AA): -0.229 | interaction score (4H3133-AA): 1.46 | interaction score (4H3162-AA): 1.38 | interaction score (4H32-AA): 1.23 | interaction score (4H3378-AA): -0.221 | interaction score (4H340-AA): -1.94 | interaction score (4H3413-AA): -1.35 | interaction score (4H3588-AA): -1.22 | interaction score (4H3606-AA): 2.08 | interaction score (4H3631-AA): -1.14 | interaction score (4H3697-AA): -0.269 | interaction score (4H3718-AA): -1.5 | interaction score (4H384-AA): -0.973 | interaction score (4H3865-AA): 1.13 | interaction score (4H697-AA): 1.47 | interaction score (4H982-AA): -1.36
Binder: DENAALKAKIAALKAENAALEAEIAALKG [4H1874-AA]

interaction score (4H2614-AA): 1.46 | interaction score (4H2726-AA): -0.336 | interaction score (4H2935-AA): 0.084 | interaction score (4H327-AA): -0.0398 | interaction score (4H3605-AA): -0.49 | interaction score (4H3625-AA): 0.314 | interaction score (4H3664-AA): -1.11 | interaction score (4H369-AA): 2.41 | interaction score (4H3922-AA): 0.659 | interaction score (4H4033-AA): -1.43 | interaction score (4H481-AA): 1.06 | interaction score (4H55-AA): -0.185 | interaction score (4H662-AA): -1.17
Binder: DKIAALKAEIAALEAKNAALEAKIAALKG [4H2614-AA]

The remaining lines, values behind:

Binder: DEIAALEADNAALDAENAALEAEIAALEG [P1-AA-1HGe-D]
interaction score (P2-AA-1HGe-A): 1.58 | interaction score (P2-AA-1HGe-D): 0.303 | interaction score (P2-AA-1HGe-M): 1.74 | interaction score (P2-AA-1HGe-Q): 2.03 | interaction score (P2-AA-1HGe-T): 1.92 | interaction score (P2-AA): 1.91

Binder: DEIAALEARNAALRAENAALEAEIAALEG [P1-AA-1HGe-R]
interaction score (P2-AA-1HGe-A): 1.97 | interaction score (P2-AA-1HGe-D): 1.67 | interaction score (P2-AA-1HGe-M): 1.7 | interaction score (P2-AA-1HGe-Q): 2.26 | interaction score (P2-AA-1HGe-T): 2.2 | interaction score (P2-AA): 1.49

Reference: article PMC10397247
